Consider three molecules from publication PMC6045459 (Nature structural & molecular biology, 2018).

Data set [1] deals with NUDT16TI with deletion of His105 (UniProt Q96DE0). The data set can be described thus: ITC.
Data set [2] deals with NUDT16TI (NUDT16 Tudor-interacting), purified alone (UniProt Q96DE0). The data set can be described thus: ITC.
The target in a further data set is NUDT16TI K5S (UniProt Q96DE0). The data set can be described thus: ITC. A general note: In ITC the heat of successive injections is recorded.
The data set “AUC” concerns the molecule itself. Description: AUC.
In data set [3] the target is TIRR (residues 6-211), untagged (human, UniProt Q9BRJ7 6-211). The data set can be described thus: crystal structure.
TIRR (residues 6-211), untagged, sequence (Q9BRJ7 6-211): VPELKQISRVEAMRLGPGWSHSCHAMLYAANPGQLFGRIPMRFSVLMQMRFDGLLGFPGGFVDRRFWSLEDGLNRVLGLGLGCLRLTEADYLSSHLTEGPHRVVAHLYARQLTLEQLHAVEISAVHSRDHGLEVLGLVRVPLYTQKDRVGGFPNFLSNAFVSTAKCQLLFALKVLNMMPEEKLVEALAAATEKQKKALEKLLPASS

Consider “53BP1-Tudor (residues 1484-1603) (from UniProt Q12888 1484-1603) (domain or fragment)”, for which the fold decrease in affinity against NUDT16TI in data set [1] is 38 fold; with NUDT16TI K5S, 14 fold. Moreover, the Kd (as a rule, the concentration at which binding is half-saturated) in data set [2] was 1.2 µM. The same molecule gave a fold increase of Kd with excess IMP against no IMP in data set [2] of 3 fold.

B1: 53BP1 (residues 1204-1603) (domain or fragment, human, UniProt Q12888 1204-1603, looked up)
chain: EKPVSAPGDDTESLHSQGEEEFDMPQPPHGHVLHRHMRTIREVRTLVTRVITDVYYVDGTEVERKVTEETEEPIVECQECETEVSPSQTGGSSGDLGDISSFSSKASSLHRTSSGTSLSAMHSSGSSGKGAGPLRGKTSGTEPADFALPSSRGGPGKLSPRKGVSQTGTPVCEEDGDAGLGIRQGGKAPVTPRGRGRRGRPPSRTTGTRETAVPGPLGIEDISPNLSPDDKSFSRVVPRVPDSTRRTDVGAGALRRSDSPEIPFQAAAGPSDGLDASSPGNSFVGLRVVAKWSSNGYFYSGKITRDVGAGKYKLLFDDGYECDVLGKDILLCDPIPLDTEVTALSEDEYFSAGVVKGHRKESGELYYSIEKEGQRKWYKRMAVILSLEQGNRLREQYGLG
Consider B1, for which, in “AUC”, the stoichiometry N (usually the number of molecules, sites or subunits per partner or assembly) was found to be 2.

B2: 53BP1-Tudor (residues 1484-1603) (domain or fragment, human, UniProt Q12888 1484-1603, looked up)
chain: NSFVGLRVVAKWSSNGYFYSGKITRDVGAGKYKLLFDDGYECDVLGKDILLCDPIPLDTEVTALSEDEYFSAGVVKGHRKESGELYYSIEKEGQRKWYKRMAVILSLEQGNRLREQYGLG
Consider B2, for which the binding result in data set [3] is “binds”.
